Results published in patent US20180230200A1 (CITY OF HOPE, published 2018).

T1: UL128 expressed from MVA in BHK-21 cells (human cytomegalovirus, UniProt P16837 28-171)
T1 construct: whole, on cells
T1 sequence: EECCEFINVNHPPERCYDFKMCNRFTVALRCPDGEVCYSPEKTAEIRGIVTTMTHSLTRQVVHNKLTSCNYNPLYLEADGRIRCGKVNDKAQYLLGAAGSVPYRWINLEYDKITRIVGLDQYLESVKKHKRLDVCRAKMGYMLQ

B1: 2-80 (antibody, V domains shown)
VH: QIQLVQSGPELKKPGETVKISCKASGYTFTNFGMNWVKQAPGKGLKWMGWINTYTGEPTYADDFKGRFAFSLETSASTASLQINNLKNEDTATYFCARRGDGLYSMDYWGQGTSVTVSS
VL: DIVLTQSPASLAVSLGQRATISCRASESIDSYGNSFMYWYQQKPGQPPKLLIYRASNLESGIPARFSGSGSRTDFTLTINPVEADDVATYYCQQSNEDPLTFGAGTKLELK
notes: also called NAb 2-80
B2: 21E9 (antibody, V domains shown)
VH: QIQLVQSGPELKKPGETVKISCKASGYTFTIYGMNWVKQAPGKGLKWMGWINTYTGEPTYADDFRGRFAFSLETSASTAYLQINNLKNEDTATYFCARKGYYGSSGYFDYWGQGTTLTVSS
VL: SIVMTQTPKFLLVSAGDRVTITCKASQSVSNDVSWYQQKPGQSPKLLIYYASNRYTGVPDRFTGSGYGTDFTFTISTVQAEDLAVYFCQQDYSSPWTFGGGTKLEIK
notes: also called NAb 21E9
B3: 62-11 (antibody, V domains shown)
VH: QVQLQQPGAELVRPGASVKLSCKASGYTFTSYWMNWVKQRPGQGLEWIGMIDPSDSETHYNQMFKDKATLTVDKSSSTAYMQLSSLTSEDSAVYYCSNGYSSFAYWGQGTLVTVSV
VL: DVQMTQTTSSLSASLGDRVTISCSASQGISNYLNWYQQKPDGTVKLLIYDTSSLHSGVPSRFSGSGSGTDYSLTISNLEPEDIATYYCQQYSKLPYTFGGGTKLEIK
notes: also called NAb 62-11
B4: 62-100 (antibody, V domains shown)
VH: B3 VH
VL: DIVLTQSPATLSVTPGDSVSLSCRASQSISNNLHWYQQKSHESPRLLIKYASQSISGIPSRFSGSGSGTDFTLSINSVETEDFGKYVCQQSNSWPLTFGSGTKLEIK
notes: also called NAb 62-100

These binders were tested against T1, UL128 expressed from MVA in BHK-21 cells (assay: intracellular FC, MVA-infected BHK-21).
Experimental: (§1) NAb subunit specificity was evaluated by staining BHK-21 cells infected with different MVA recombinants. One or more vectors were used to co-infect BHK-21 at an MOI of 5. […] Four hours post infection cells were fixed and permeabilized using Cytofix/Cytoperm solution (BD Biosciences). NAbs (1 mg/ml) were diluted 1:500 in perm/wash buffer (BD) and added to the cells for 1 hour at 4° C. […] Cells were washed again and resuspended in PBS/0.1% BSA. Fifteen thousand events were collected using the Gallios Flow Cytometer (Beckman Coulter, Miami, Fla., USA) and analyzed with FlowJo Software (Tree Star, Ashland, Oreg., USA). Uninfected cells and cells infected with MVA-Venus were used as controls. GFP expression was analyzed for confirming MVA infection since all the constructs contain a GFP expression cassette (36, 62).
(§2) In order to determine the antigen specificity of the vaccine-derived NAbs, intracellular flow cytometry (FC) staining of permeabilized BHK-21 cells infected with MVA expressing single subunits or combinations of two or more subunits of the PC was evaluated.
B1: no binding. B2: no binding. B3: no binding. B4: no binding.

These binders were tested against T2, UL130 expressed from MVA in BHK-21 cells (human cytomegalovirus, UniProt P16772 1-214) (assay: intracellular FC, MVA-infected BHK-21).
T2 construct: whole, on cells
Experimental: as §1, §2
B1: no binding. B2: no binding. B3: no binding. B4: no binding.

The binders below were run against T3, UL130/UL131A co-expressed from MVA in BHK-21 cells (human cytomegalovirus, UniProt P16772 1-214; F5HET4 19-129) (assay: intracellular FC, MVA-infected BHK-21).
T3 construct: whole, on cells
Experimental: as §1, §2
B1: no binding. B2: no binding. B3: no binding. B4: no binding.

The binders below were run against T4, UL131A expressed from MVA in BHK-21 cells (human cytomegalovirus, UniProt F5HET4 19-129) (assay: intracellular FC, MVA-infected BHK-21).
T4 construct: whole, on cells
Experimental: as §1, §2
B1: no binding. B2: no binding. B3: no binding. B4: no binding.

These binders were tested against T5, UL128/UL131A co-expressed from MVA in BHK-21 cells (human cytomegalovirus, UniProt P16837 28-171; F5HET4 19-129) (assay: intracellular FC, MVA-infected BHK-21).
T5 construct: whole, on cells
Experimental: as §1, §2
B1: no binding. B2: no binding. B3: no binding. B4: no binding.

What follows are binders tested against T6, UL128/UL130/UL131A co-expressed from MVA in BHK-21 cells (human cytomegalovirus, UniProt P16837 28-171; P16772 1-214; F5HET4 19-129) (assay: intracellular FC, MVA-infected BHK-21).
T6 construct: whole, on cells
Experimental: as §1, §2
B1: no binding. B2: no binding. B3: no binding. B4: no binding.

What follows are binders tested against T7, UL128/UL130 co-expressed from MVA in BHK-21 cells (human cytomegalovirus, UniProt P16837 28-171; P16772 1-214) (assay: intracellular FC, MVA-infected BHK-21).
T7 construct: whole, on cells
Experimental: as §1, §2
B1: no binding. B2: no binding. B3: no binding. B4: no binding.

These binders were tested against T8, gH/gL/UL128/UL130/UL131A pentamer complex expressed from MVA-PC in BHK-21 cells (human cytomegalovirus, UniProt P12824 24-743; P16832 31-278; P16837 28-171; P16772 1-214; F5HET4 19-129) (assay: FC, biotinylated NAb titrated on MVA-PC-infected BHK-21 (cell surface PC)).
T8 construct: whole, on cells
Work on B1 yielded an EC50 of 2.8 nM. Work on B2 yielded an EC50 of 18 nM. In the case of B3, the EC50 is reported as 1.7 nM. Binder B4 has an EC50 of 3.3 nM.

The binders below were run against T8, gH/gL/UL128/UL130/UL131A pentamer … (assay: FC competition, MVA-PC BHK-21; unlabelled row Ab; competitor: biotinylated 21E9; note: test concentration or dose not given here).
With B1 the “Binding Inhibition (%)” value was 100%. With B2 the “Binding Inhibition (%)” value was 100%. In the case of B3, the “Binding Inhibition (%)” value is reported as 46%. In the case of B4, the “Binding Inhibition (%)” value is reported as 51%.

Each binder was assayed against T8, gH/gL/UL128/UL130/UL131A pentamer … (assay: FC competition, MVA-PC BHK-21; unlabelled row Ab; competitor: biotinylated AP86; note: test concentration or dose not given here).
B1 was tested, and the “Binding Inhibition (%)” value was 0%. B2 was tested, and the “Binding Inhibition (%)” value was 0%. B3 was tested, and the “Binding Inhibition (%)” value was 0%. B4 was tested, and the “Binding Inhibition (%)” value was 0%.

Each binder was assayed against T8, gH/gL/UL128/UL130/UL131A pentamer … (assay: FC competition, MVA-PC BHK-21; unlabelled row Ab; competitor: biotinylated 62-11; note: test concentration or dose not given here).
For B1, the “Binding Inhibition (%)” value was 43%. In the case of B2, the “Binding Inhibition (%)” value is reported as 32%. With B3 the “Binding Inhibition (%)” value was 100%. In the case of B4, the “Binding Inhibition (%)” value is reported as 100%.

These binders were tested against T8, gH/gL/UL128/UL130/UL131A pentamer … (assay: FC competition, MVA-PC BHK-21; unlabelled row Ab; competitor: biotinylated 18F10).
In the case of B1, the “Binding Inhibition (%)” value is reported as 0%. For B2, the “Binding Inhibition (%)” value was 0%. B3 was tested, and the “Binding Inhibition (%)” value was 0%. B4 was tested, and the “Binding Inhibition (%)” value was 0%.

Each binder was assayed against gH of HCMV strain TB40/E (human cytomegalovirus strain TB40/E) (assay: cell-based or functional assay).
For B1, the “IC50, inhibition of TB40/E cell-to-cell spread in ARPE-19” value was > 400 µg/mL, the “IC50, neutralization of TB40/E infection of ARPE-19” value was 1.43 µg/mL and the “IC50, neutralization of TB40/E infection of CTB” value (“IC50, neutralization … of CTB” below) was > 50 µg/mL. For the same binder, the “IC50, neutralization of TB40/E infection of HUVEC” value was 1.41 µg/mL and the “IC50, neutralization of TB40/E infection of MRC-5” value was 1.6 µg/mL. B2 was tested, and the “IC50, inhibition of TB40/E cell-to-cell spread in ARPE-19” value was 157 µg/mL, the “IC50, neutralization of TB40/E infection of ARPE-19” value was 1.41 µg/mL and the “IC50, neutralization … of CTB” value was 42.4 µg/mL. The “IC50, neutralization of TB40/E infection of HUVEC” value was 2.37 µg/mL and the “IC50, neutralization of TB40/E infection of MRC-5” value was 5.78 µg/mL. With B3 the “IC50, inhibition of TB40/E cell-to-cell spread in ARPE-19” value was 87 µg/mL, the “IC50, neutralization of TB40/E infection of ARPE-19” value was 0.185 µg/mL and the “IC50, neutralization … of CTB” value was 2.76 µg/mL. For the same binder, the “IC50, neutralization of TB40/E infection of HUVEC” value was 0.102 µg/mL and the “IC50, neutralization of TB40/E infection of MRC-5” value was 0.182 µg/mL. B4 was tested, and the “IC50, inhibition of TB40/E cell-to-cell spread in ARPE-19” value was 103 µg/mL, the “IC50, neutralization of TB40/E infection of ARPE-19” value was 0.27 µg/mL and the “IC50, neutralization … of CTB” value was 3.62 µg/mL. For the same binder, the “IC50, neutralization of TB40/E infection of HUVEC” value was 0.156 µg/mL and the “IC50, neutralization of TB40/E infection of MRC-5” value was 0.293 µg/mL.

These binders were tested against gH of HCMV strain TR (human cytomegalovirus strain TR) (assay: cell-based or functional assay).
B1 was tested, and the “IC50, inhibition of TR cell-to-cell spread in ARPE-19” value was 398 µg/mL, the “IC50, neutralization of TR infection of ARPE-19” value was 2.12 µg/mL and the “IC50, neutralization of TR infection of HUVEC” value (from here on “IC50 … of TR infection of HUVEC”) was 2.54 µg/mL. The “IC50, neutralization of TR infection of MRC-5” value (“IC50 … of TR infection of MRC-5” for short) was 1.72 µg/mL. With B2 the “IC50, inhibition of TR cell-to-cell spread in ARPE-19” value was 262 µg/mL, the “IC50, neutralization of TR infection of ARPE-19” value was 0.926 µg/mL and the “IC50 … of TR infection of HUVEC” value was 2.92 µg/mL. The “IC50 … of TR infection of MRC-5” value was 4.14 µg/mL. In the case of B3, the “IC50, inhibition of TR cell-to-cell spread in ARPE-19” value is reported as 395 µg/mL, the “IC50, neutralization of TR infection of ARPE-19” value is reported as 0.641 µg/mL and the “IC50 … of TR infection of HUVEC” value is reported as 0.83 µg/mL. For the same binder, the “IC50 … of TR infection of MRC-5” value was 3.35 µg/mL. With B4 the “IC50, inhibition of TR cell-to-cell spread in ARPE-19” value was 337 µg/mL, the “IC50, neutralization of TR infection of ARPE-19” value was 2.13 µg/mL and the “IC50 … of TR infection of HUVEC” value was 1.03 µg/mL. The “IC50 … of TR infection of MRC-5” value was 1.98 µg/mL.

Each binder was assayed against T8, gH/gL/UL128/UL130/UL131A pentamer … (assay: FC competition, MVA-PC BHK-21; unlabelled row Ab; competitor: biotinylated 2-80; note: test concentration or dose not given here).
With B1 the “Binding Inhibition (%)” value was 100%. For B2, the “Binding Inhibition (%)” value was 100%. In the case of B3, the “Binding Inhibition (%)” value is reported as 54%. With B4 the “Binding Inhibition (%)” value was 57%.
